According to article doi:10.1101/2021.02.28.432901:

Target: T1, SWELL1 (LRRC8a, Leucine-Rich Repeat Containing Protein 8a), Q80WG5
T1 chain: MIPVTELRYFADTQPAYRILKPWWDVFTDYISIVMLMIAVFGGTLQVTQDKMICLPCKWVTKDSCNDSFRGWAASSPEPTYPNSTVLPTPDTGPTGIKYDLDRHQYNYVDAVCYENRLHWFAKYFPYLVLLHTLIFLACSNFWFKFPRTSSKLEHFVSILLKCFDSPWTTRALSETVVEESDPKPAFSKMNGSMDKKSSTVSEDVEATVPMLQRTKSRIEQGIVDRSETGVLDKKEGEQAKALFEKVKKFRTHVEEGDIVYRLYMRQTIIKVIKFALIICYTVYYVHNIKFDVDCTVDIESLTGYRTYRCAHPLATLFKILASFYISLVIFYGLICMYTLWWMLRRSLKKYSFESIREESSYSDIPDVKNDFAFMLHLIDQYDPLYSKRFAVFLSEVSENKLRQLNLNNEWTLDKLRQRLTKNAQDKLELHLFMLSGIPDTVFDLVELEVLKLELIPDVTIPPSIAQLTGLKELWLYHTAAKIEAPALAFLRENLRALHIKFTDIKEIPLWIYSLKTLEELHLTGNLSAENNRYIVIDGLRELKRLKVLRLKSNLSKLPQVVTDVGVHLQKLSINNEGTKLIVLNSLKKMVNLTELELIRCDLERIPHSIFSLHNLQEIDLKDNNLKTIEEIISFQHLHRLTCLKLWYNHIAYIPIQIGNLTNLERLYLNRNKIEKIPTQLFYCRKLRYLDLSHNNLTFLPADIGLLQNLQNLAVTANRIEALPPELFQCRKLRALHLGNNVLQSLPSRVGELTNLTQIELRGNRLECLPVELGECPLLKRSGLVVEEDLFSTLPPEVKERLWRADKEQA
Experiment: cryo-EM structure
Conditions: remark: other sources report otherwise

stoichiometry N: 6
B1: SWELL1 (LRRC8a, Leucine-Rich Repeat Containing Protein 8a), Q80WG5 1-810 (natural protein)
chain: T1 chain
